According to paper PMC5800945 (Journal of molecular biology, 2017):
Substitutions are numbered along the chain they refer to.

B1: Fab1H (anti-Asf1 Fab, wild-type switch region) (Fab, V domains shown)
VH: EVQLVESGGGLVQPGGSLRLSCAASGFNVSYSSIHWVRQAPGKGLEWVAYIYPSSGYTSYADSVKGRFTISADTSKNTAYLQMNSLRAEDTAVYYCARSYSTKLAMDYWGQGTLVTVSS
VL: DIQMTQSPSSLSASVGDRVTITCRASQSVSSAVAWYQQKPGKAPKLLIYSASSLYSGVPSRFSGSRSGTDFTLTISSLQPEDFATYYCQQSQWYPITFGQGTKVEIK
B2: Fab1H-FNQIKG (Fab, V domains shown)
VH: B1 VH with S118F, S119N
VL: B1 VL
B3: Fab1H-VSRRLP (Fab, V domains shown)
VH: B1 VH with S118V
VL: B1 VL

The binders below were run against histone chaperone Anti-silencing factor 1 (Asf1) (Saccharomyces cerevisiae S288c) (assay: crystal structure).
Sequence of histone chaperone Anti-silencing factor 1 (Asf1) (Saccharomyces cerevisiae S288c) (P32447 2-154): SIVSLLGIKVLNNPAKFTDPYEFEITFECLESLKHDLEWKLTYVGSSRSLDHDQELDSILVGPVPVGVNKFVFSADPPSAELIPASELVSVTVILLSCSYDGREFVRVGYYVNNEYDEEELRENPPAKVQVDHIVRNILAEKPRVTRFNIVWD

Does B1 bind?
Result: binds

Does B2 bind?
Result: binds

Does B3 bind?
Result: binds
